According to patent US20160136234A1:

Assays:
Assay in all cases: cell-based or functional assay
IKKβ (h) (human) = biological target: T1, IKKβ (h) (human) (UniProt O14920)
T1 sequence (looked up): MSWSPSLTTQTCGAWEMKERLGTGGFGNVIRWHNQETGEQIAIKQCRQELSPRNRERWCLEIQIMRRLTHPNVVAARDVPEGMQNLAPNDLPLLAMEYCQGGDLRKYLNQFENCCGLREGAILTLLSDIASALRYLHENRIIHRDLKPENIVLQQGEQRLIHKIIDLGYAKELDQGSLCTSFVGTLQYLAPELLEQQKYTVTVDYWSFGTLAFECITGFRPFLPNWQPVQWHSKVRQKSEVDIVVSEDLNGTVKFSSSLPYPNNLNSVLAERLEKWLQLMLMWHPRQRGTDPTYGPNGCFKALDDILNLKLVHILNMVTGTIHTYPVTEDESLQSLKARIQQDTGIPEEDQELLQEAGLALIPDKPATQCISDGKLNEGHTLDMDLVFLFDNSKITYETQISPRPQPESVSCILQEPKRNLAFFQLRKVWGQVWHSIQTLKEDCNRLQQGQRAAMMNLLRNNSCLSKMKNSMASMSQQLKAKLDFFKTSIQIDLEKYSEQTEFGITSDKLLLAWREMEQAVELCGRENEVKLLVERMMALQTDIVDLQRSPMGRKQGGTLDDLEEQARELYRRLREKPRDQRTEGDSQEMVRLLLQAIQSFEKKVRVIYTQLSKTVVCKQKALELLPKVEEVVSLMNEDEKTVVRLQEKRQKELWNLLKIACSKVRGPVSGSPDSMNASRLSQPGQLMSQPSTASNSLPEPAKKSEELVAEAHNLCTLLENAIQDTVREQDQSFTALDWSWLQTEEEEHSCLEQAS

LIMK1 (h) (human) = LIMK1 (h) (human) (UniProt P53667)
WNK2 (h) (human) = WNK2 (h) (human) (UniProt Q9Y3S1)
PKBα (h) (human) = PKBα (h) (human) (UniProt P31749)
PAK5 (h) (human) = PAK5 (h) (human) (UniProt Q9P286)
AMPKα1 (h) (human) = AMPKα1 (h) (human) (UniProt Q13131)
MSK1 (h) (human) = MSK1 (h) (human) (UniProt O75582)
MSSK1 (h) (human) = MSSK1 (h) (human) (UniProt Q9UPE1)
CaMKIV (h) (human) = CaMKIV (h) (human) (UniProt Q16566)
Ros (h) (human) = Ros (h) (human) (UniProt P08922)
FGFR2 (h) (human) = FGFR2 (h) (human) (UniProt P21802)
PKCε (h) (human) = PKCε (h) (human) (UniProt Q02156)
PrKX (h) (human) = biological target: T2, PrKX (h) (human) (UniProt P51817)
T2 sequence (looked up): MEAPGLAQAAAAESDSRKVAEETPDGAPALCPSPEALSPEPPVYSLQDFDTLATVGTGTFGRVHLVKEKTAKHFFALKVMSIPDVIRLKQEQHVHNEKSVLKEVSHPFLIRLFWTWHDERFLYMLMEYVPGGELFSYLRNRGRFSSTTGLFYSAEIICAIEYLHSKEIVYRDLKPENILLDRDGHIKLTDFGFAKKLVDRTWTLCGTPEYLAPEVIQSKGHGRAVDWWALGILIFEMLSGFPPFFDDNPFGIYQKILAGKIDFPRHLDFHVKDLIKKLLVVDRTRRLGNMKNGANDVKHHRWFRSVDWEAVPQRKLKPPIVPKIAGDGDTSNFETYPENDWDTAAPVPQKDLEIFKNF

Aurora-B (h) (human) = Aurora-B (h) (human) (UniProt Q96GD4)
[1] = biological target: CDK7/cyclinH/MAT1 (h) (human) (UniProt P50613)
Ret (h) (human) = biological target: T3, Ret (h) (human) (UniProt P07949)
T3 sequence (looked up): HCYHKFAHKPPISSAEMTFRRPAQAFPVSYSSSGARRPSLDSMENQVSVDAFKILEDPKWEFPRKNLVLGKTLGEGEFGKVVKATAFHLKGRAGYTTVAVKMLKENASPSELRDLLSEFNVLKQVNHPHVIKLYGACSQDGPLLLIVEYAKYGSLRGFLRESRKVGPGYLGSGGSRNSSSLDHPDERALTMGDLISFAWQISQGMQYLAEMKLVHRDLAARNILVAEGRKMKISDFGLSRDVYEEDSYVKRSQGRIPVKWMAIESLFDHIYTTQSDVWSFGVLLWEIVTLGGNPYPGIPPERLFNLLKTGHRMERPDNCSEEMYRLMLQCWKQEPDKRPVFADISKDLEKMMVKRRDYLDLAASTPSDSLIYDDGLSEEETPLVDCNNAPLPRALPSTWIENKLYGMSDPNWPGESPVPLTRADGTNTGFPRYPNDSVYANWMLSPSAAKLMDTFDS

EphA3 (h) (human) = biological target: T4, EphA3 (h) (human) (UniProt P29320)
T4 sequence (looked up): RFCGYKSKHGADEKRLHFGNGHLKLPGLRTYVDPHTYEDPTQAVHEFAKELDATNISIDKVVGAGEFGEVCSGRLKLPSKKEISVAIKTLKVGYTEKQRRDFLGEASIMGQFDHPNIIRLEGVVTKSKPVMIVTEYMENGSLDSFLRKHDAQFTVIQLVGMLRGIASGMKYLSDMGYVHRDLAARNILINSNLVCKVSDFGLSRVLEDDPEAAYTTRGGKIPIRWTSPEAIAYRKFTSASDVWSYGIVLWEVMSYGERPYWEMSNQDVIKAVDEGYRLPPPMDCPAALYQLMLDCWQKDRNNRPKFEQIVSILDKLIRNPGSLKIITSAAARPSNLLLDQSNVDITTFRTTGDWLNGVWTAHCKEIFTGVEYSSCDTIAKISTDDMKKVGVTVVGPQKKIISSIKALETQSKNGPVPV

PKBα (h) (human), sequence (P31749 whole entry): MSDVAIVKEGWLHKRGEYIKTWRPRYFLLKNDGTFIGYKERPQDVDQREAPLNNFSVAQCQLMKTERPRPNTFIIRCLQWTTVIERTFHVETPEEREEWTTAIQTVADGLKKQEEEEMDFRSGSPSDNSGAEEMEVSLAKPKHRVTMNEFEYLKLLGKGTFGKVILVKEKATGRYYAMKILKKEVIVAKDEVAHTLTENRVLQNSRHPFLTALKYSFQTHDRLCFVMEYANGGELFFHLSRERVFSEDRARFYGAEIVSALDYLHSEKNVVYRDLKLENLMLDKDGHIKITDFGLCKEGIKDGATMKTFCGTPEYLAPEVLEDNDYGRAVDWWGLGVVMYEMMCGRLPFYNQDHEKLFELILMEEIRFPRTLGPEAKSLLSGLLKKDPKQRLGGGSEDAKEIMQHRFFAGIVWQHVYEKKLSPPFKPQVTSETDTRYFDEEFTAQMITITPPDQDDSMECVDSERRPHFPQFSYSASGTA
Aurora-B (h) (human), sequence (Q96GD4 whole entry): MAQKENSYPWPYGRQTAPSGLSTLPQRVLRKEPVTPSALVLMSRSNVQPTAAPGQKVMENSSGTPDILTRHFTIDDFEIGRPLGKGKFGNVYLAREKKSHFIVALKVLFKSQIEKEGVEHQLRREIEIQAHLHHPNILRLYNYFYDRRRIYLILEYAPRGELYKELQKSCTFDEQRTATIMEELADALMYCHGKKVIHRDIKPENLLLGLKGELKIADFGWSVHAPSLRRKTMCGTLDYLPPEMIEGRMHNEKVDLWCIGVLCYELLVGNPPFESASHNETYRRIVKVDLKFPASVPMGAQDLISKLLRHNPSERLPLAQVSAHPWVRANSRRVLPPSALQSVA
CDK7/cyclinH/MAT1 (h) (human), sequence (P50613 whole entry, chain 1 of 3): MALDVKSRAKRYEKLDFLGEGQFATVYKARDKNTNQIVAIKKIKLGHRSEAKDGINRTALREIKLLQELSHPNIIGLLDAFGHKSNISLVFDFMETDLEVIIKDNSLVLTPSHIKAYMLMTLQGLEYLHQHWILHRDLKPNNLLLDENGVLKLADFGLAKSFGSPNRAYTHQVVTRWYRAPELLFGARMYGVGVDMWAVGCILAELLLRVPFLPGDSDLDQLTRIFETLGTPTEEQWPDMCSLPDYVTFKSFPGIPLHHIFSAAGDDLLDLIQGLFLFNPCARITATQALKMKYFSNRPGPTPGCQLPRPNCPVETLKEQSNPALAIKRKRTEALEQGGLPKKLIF
CDK7/cyclinH/MAT1 (h) (human), sequence (P51946 whole entry, chain 2 of 3, further chain): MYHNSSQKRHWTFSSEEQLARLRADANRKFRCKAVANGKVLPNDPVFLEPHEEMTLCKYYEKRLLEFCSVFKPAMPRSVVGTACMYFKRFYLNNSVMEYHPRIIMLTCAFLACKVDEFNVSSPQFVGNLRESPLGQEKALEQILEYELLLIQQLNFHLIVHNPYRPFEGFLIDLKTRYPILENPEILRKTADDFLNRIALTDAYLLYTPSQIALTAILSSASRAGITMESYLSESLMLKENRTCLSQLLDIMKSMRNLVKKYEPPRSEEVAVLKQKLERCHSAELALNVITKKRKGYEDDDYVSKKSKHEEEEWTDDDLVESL
CDK7/cyclinH/MAT1 (h) (human), sequence (P51948 whole entry, chain 3 of 3, further chain): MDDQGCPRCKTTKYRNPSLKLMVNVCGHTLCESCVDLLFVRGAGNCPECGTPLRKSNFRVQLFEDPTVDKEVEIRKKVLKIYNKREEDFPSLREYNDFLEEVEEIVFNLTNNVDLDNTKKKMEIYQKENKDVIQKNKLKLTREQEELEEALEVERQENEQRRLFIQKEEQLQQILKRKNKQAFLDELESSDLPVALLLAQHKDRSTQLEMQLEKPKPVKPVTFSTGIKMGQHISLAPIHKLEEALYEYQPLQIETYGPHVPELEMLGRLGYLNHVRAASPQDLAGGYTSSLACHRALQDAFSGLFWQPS
FGFR2 (h) (human), sequence (P21802 456-770 limits assumed): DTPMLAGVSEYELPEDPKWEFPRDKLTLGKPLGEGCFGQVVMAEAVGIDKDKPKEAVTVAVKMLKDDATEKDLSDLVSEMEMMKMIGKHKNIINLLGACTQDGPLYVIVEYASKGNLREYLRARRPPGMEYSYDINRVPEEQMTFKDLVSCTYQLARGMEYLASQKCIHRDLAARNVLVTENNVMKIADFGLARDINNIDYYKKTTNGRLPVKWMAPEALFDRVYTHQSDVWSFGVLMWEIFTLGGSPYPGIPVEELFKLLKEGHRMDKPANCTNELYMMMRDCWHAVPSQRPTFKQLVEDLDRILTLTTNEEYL
Ros (h) (human), sequence (P08922 1883-2347 limits assumed): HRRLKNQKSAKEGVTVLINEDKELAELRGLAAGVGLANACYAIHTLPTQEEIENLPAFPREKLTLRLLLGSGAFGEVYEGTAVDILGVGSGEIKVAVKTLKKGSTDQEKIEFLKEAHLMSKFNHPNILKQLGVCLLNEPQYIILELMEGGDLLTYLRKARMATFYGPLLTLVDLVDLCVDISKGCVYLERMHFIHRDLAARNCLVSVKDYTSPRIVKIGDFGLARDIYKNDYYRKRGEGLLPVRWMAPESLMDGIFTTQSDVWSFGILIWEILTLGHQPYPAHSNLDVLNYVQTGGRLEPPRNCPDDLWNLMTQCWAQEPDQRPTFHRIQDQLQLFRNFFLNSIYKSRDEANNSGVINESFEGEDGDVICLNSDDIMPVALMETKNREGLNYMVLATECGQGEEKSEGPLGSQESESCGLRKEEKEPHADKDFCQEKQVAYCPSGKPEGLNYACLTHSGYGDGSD

MMI-0300 (peptide)
% activity at 100 µM (IKKβ (h) (human)): 84% | % activity at 100 µM (LIMK1 (h) (human)): 88% | % activity at 100 µM (WNK2 (h) (human)): 64% | % activity at 100 µM (PKBα (h) (human)): 57% | % activity at 100 µM (PAK5 (h) (human)): 110% | % activity at 100 µM (AMPKα1 (h) (human)): 71% | % activity at 100 µM (MSK1 (h) (human)): 32% | % activity at 100 µM (MSSK1 (h) (human)): 77% | % activity at 100 µM (CaMKIV (h) (human)): 17% | % activity at 100 µM (Ros (h) (human)): 95% | % activity at 100 µM (FGFR2 (h) (human)): 14% | % activity at 100 µM (PKCε (h) (human)): 79% | % activity at 100 µM (PrKX (h) (human)): 61% | % activity at 100 µM (Aurora-B (h) (human)): 128% | % activity at 100 µM [1]: 65% | % activity at 100 µM (Ret (h) (human)): 140% | % activity at 100 µM (EphA3 (h) (human)): 6%
